Test results reported in IntAct's records for PubMed 17006543.

B1: Beta-adrenergic receptor kinase 1 (Homo sapiens), P25098 (parent)
chain: MADLEAVLADVSYLMAMEKSKATPAARASKKILLPEPSIRSVMQKYLEDRGEVTFEKIFSQKLGYLLFRDFCLNHLEEARPLVEFYEEIKKYEKLETEEERVARSREIFDSYIMKELLACSHPFSKSATEHVQGHLGKKQVPPDLFQPYIEEICQNLRGDVFQKFIESDKFTRFCQWKNVELNIHLTMNDFSVHRIIGRGGFGEVYGCRKADTGKMYAMKCLDKKRIKMKQGETLALNERIMLSLVSTGDCPFIVCMSYAFHTPDKLSFILDLMNGGDLHYHLSQHGVFSEADMRFYAAEIILGLEHMHNRFVVYRDLKPANILLDEHGHVRISDLGLACDFSKKKPHASVGTHGYMAPEVLQKGVAYDSSADWFSLGCMLFKLLRGHSPFRQHKTKDKHEIDRMTLTMAVELPDSFSPELRSLLEGLLQRDVNRRLGCLGRGAQEVKESPFFRSLDWQMVFLQKYPPPLIPPRGEVNAADAFDIGSFDEEDTKGIKLLDSDQELYRNFPLTISERWQQEVAETVFDTINAETDRLEARKKAKNKQLGHEEDYALGKDCIMHGYMSKMGNPFLTQWQRRYFYLFPNRLEWRGEGEAPQSLLTMEEIQSVEETQIKERKCLLLKIRGGKQFILQCDSDPELVQWKKELRDAYREAQQLVQRVPKMKNKPRSPVVELSKVPLVQRGSANGL

Variants of: B1
Conditions: with ubc_human UBC

Q: For K19R, which “effect of a mutation on the interaction” value is on record?
A: Its value is “decreasing interaction”.

Q: K30R was tested. Which “effect of a mutation on the interaction” value did it give?
A: Its value is “decreasing interaction”.

Q: Which “effect of a mutation on the interaction” value does the source give for K31R here?
A: The value was “decreasing interaction”.
